Reference: paper doi:10.1101/2021.04.25.441346 (bioRxiv, 2021)

Target: T1, GST-AFF1 (AUXIN RESPONSE FACTOR F-BOX1, At3g49150) (Arabidopsis thaliana, UniProt Q9M3B7 1-630)
T1 sequence (looked up): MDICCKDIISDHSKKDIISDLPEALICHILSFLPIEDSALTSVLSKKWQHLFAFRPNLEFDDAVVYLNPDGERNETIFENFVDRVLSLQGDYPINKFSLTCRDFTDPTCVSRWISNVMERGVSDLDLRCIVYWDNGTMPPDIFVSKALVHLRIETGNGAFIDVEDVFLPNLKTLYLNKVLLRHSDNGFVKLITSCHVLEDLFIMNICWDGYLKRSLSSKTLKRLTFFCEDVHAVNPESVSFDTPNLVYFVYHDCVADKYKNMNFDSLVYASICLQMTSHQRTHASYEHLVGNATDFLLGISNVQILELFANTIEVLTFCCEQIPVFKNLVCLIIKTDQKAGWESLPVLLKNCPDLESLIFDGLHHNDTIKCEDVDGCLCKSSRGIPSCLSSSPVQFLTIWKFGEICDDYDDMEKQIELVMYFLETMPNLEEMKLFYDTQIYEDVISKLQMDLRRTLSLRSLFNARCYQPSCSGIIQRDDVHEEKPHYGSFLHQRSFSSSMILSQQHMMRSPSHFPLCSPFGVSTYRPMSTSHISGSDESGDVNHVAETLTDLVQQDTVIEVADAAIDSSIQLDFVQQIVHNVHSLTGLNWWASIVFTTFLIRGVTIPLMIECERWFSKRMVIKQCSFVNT
Experiment: pull-down

- binding result: binds
B1: His-ASK1 (ARABIDOPSIS SKP1-LIKE 1) (natural protein, Arabidopsis thaliana, UniProt Q39255 1-160, looked up)
chain: MSAKKIVLKSSDGESFEVEEAVALESQTIAHMVEDDCVDNGVPLPNVTSKILAKVIEYCKRHVEAAASKAEAVEGAATSDDDLKAWDADFMKIDQATLFELILAANYLNIKNLLDLTCQTVADMIKGKTPEEIRTTFNIKNDFTPEEEEEVRRENQWAFE
